Reference: patent US20190383824A1 (OREGON HEALTH AND SCIENCE UNIVERSITY, published 2019)

T1: CoilY-mCherry-TM
T1 construct: CoilY fused to the N-terminus of a membrane-targeted mCherry construct; on cells or in HEK293FT lysates; also called CoilY-mCherry-pDisplay
T1 chain: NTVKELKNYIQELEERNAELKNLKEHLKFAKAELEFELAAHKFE

T2: mEmerald-CoilE-Actin-C18
T2 construct: Expressed in U-2 OS cells; labelled after fixation and permeabilisation; also called CoilE-tagged actin; not shown: mEmerald, engineered green fluorescent protein; actin (Actin-C18 construct)
T2 chain: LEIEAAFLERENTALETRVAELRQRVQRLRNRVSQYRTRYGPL

T3: H2B-6-CoilE-mEmerald
T3 construct: Expressed in U-2 OS cells; labelled after fixation and permeabilisation; also called mEmerald-CoilE-H2B; not shown: histone H2B (H2B-6 construct); mEmerald, engineered green fluorescent protein
T3 chain: T2 chain

T4: Mito-7-CoilE-mEmerald
T4 construct: Expressed in U-2 OS cells; labelled after fixation and permeabilisation; also called mEmerald-CoilE-mito; not shown: mEmerald, engineered green fluorescent protein
T4 chain: T2 chain

T5: CoilY-EGFP-TM
T5 construct: also called CoilY-GFP
T5 chain: T1 chain

T6: CoilZ-EGFP-TM
T6 construct: CoilZ fused to the N-terminus of EGFP in pDisplay; also called CoilZ-GFP; CoilZ-EGFP-pDisplay
T6 chain: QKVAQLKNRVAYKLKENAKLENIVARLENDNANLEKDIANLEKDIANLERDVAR

T7: CoilE-DHFR
T7 construct: Lysate and purified protein resolved by SDS-PAGE and blotted on PVDF
T7 chain: T2 chain

B1: CoilR probe peptide (peptide)
peptide: MGGSLEIRAAFLRQRNTALRTEVAELEQEVQRLENEVSQYETRYGPLGGGAAALGCLAAALEHHHHHH
modifications: not fully specified
notes: also called CoilR-Cy5; CoilR-biotin
B2: CoilY probe peptide (peptide)
peptide: MGSSNTVKELKNYIQELEERNAELKNLKEHLKFAKAELEFELAAHKFEGGGAAACLGKLAAALEHHHHHH
modifications: also: label (AF647, rhodamine or biotin) on Cys55 by maleimide, varies between preparations
notes: Recombinant from E. coli, with linker, reactive cysteine and His6 tag; All differently labelled CoilY probes are kept as one molecule; also called Coil5; Zip5
B3: CoilZ probe peptide (peptide)
peptide: MGSSQKVAQLKNRVAYKLKENAKLENIVARLENDNANLEKDIANLEKDIANLERDVARGGGAAACLGKLAAALEHHHHHH
modifications: reporter named in each row (AF647, fluorescein or biotin) conjugated to the reactive cysteine by maleimide chemistry; label state not stated for the biophysical characterisation
notes: Recombinant from E. coli, with linker, reactive cysteine and His6 tag; All differently labelled CoilZ probes are kept as one molecule; also called Coil6; Zip6

What was measured:
CoilY-mCherry-TM [1] = biological target: T1, CoilY-mCherry-TM; assay: fluorescent blot on PVDF after SDS-PAGE
mEmerald-CoilE-Actin-C18 = biological target: T2, mEmerald-CoilE-Actin-C18; assay: colocalisation analysis of micrographs, fixed U-2 OS cells
Description: (§1) U-2 OS cells were transfected with mEmerald-actin-C18, mEmerald-CoilE-actin-C18, H2B-6-mEmerald, H2B-6-CoilE-mEmerald, Mito-7-mEmerald, and Mito-7-CoilE-mEmerald and fixed with 4% PFA 24 hours after transfection. […] Cells were fixed and imaged using with line-scanning confocal microscope.
(§2) The cells labeled as in FIG. 15 at low magnification to capture multiple cells.

H2B-6-CoilE-mEmerald = biological target: T3, H2B-6-CoilE-mEmerald; assay: as above
Description: as §1, §2

Mito-7-CoilE-mEmerald = biological target: T4, Mito-7-CoilE-mEmerald; assay: as above
Description: as §1, §2

untagged TfR1 = biological target: T8, untagged TfR1 (UniProt P02786 1-760, limits assumed); assay: CLEM of CHO TRVb cells, CoilR-biotin detected by streptavidin-QD655
T8 construct: whole, on cells; Expressed in CHO TRVb cells; control without a coil tag; also called transferrin receptor 1; TfR1-TRVb
T8 sequence (P02786 whole entry): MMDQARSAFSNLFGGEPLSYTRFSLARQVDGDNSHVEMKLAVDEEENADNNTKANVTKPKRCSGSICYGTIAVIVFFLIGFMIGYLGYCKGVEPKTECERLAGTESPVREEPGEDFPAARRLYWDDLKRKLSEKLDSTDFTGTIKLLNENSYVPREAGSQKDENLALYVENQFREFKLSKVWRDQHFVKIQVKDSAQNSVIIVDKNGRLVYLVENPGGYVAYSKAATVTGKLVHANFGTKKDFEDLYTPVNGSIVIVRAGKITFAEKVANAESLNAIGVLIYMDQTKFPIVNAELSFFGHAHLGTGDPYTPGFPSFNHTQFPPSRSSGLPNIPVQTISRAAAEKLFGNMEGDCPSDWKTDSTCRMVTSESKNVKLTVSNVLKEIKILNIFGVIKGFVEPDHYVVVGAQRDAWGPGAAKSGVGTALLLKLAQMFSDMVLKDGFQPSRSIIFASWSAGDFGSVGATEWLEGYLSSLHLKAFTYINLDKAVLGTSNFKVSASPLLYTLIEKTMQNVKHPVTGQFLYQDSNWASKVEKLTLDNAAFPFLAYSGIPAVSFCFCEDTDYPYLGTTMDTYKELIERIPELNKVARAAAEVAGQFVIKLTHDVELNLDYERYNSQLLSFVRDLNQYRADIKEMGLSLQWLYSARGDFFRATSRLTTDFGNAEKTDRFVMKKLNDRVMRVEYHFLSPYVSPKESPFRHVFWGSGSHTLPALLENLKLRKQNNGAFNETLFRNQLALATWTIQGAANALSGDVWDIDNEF
Description: VIP E/R was used for CLEM imaging of TfR1 receptor (FIG. 7). […] This enabled individual cells' locations to be registered relative to the slide so that they may be reimaged again via SEM. After fluorescent cells were mapped, the coverslips were processed for EM imaging.

CoilY-EGFP-TM [2] = biological target: T5, CoilY-EGFP-TM; assay: flow cytometry, live U-2 OS cells
Description: (§3) Cells were treated with 500 nM AF647-conjugated probe peptide before analysis, and we gated for EGFP-expressing cells.

CoilZ-EGFP-TM [3] = biological target: T6, CoilZ-EGFP-TM; assay: flow cytometry, live cells, 300 nM probe
CoilZ-EGFP-TM [4] = biological target: T6, CoilZ-EGFP-TM; assay: flow cytometry, live U-2 OS cells, 500 nM probe
Description: as §3

CoilY-mCherry-TM [5] = biological target: T1, CoilY-mCherry-TM; assay: two-target imaging of cells, confocal microscopy
CoilE-DHFR = biological target: T7, CoilE-DHFR; assay: fluorescent blot on PVDF after SDS-PAGE
CoilY-EGFP-TM [6] = biological target: T5, CoilY-EGFP-TM; assay: flow cytometry, live U-2 OS cells, 500 nM probe
Description: as §3

CoilY probe peptide = biological target: B2; assay: purified peptides; interferometry is named among the characterisation methods
CoilZ-EGFP-TM [7] = biological target: T6, CoilZ-EGFP-TM; assay: two-target imaging of cells, confocal microscopy, streptavidin-Qdot565 detection

Does B1 bind (CoilY-mCherry-TM [1])?
Result: no binding

What about the “Pearson's correlation between the mEmerald signal and CoilR-Cy5” value (mEmerald-CoilE-Actin-C18) of the same binder?
The value was 0.97.

What about the “Pearson's correlation between the mEmerald signal and CoilR-Cy5” value (H2B-6-CoilE-mEmerald) of the same binder?
The value was 0.9.

And the “Pearson's correlation between the mEmerald signal and CoilR-Cy5” value (Mito-7-CoilE-mEmerald)?
The value was 0.89.

Does B1 bind (untagged TfR1)?
Result: no binding (tested: 100 nM)

Which results are given for B2?
binding result (CoilY-EGFP-TM [2]): no binding (tested: 500 nM); fold increase in AF647 fluorescence (CoilZ-EGFP-TM [3]): 35 fold; fold enhancement of AF647 fluorescence (CoilZ-EGFP-TM [4]): > 40 fold; binding result (CoilY-mCherry-TM [5]): no binding (tested: 500 nM)

Does B3 bind (CoilE-DHFR)?
Result: no binding

What about the “fold enhancement of AF647 fluorescence” value (CoilY-EGFP-TM [6]) of the same binder?
The value was 4 fold.

And the Kd (CoilY probe peptide)?
The Kd was 3.6 nM.

Does B3 bind (CoilZ-EGFP-TM [7])?
Result: no binding (tested: 500 nM)
